In article PMC10873205 (2024):

Target: UBE2A (UniProt P49459 1-152)
Experiment: ITC

B1: UBR4_(xtal) Ser4930Arg (domain or fragment)
chain: AIQHPGTQVLIGTDSIPNLHKLEQVSSDEGIGTLAENLLEALREHPDVNKKIDAARRETRAEKKRMAMAMRQKALGTLGMTTNEKGQVVTKTALLKQMEELIEEPGLTCCICREGYKFQPTKVLGIYTFTKRVALEEMENKPRKQQGYSTVSHFNIVHYDCHLAAVRLARGREEWESAALQNANTKCNGLLPVWGPHVPERAFATCLARHNTYLQECTGQREPTYQLNIHDIKLLFLRFAMEQSFSADTGGGGRESNIHLIPYIIHTVLYVLNTTRATSREEKNLQGFLEQPKEKWVESAFEVDGPYYFTVLALHILPPEQWRATRVEILRRLLVTSQARAVAPGGATRLTDKAVKDYSAYRSSLLFWALVDLIYNMFKKVPTSNTEGGWSCSLAEYIRHNDMPIYEAADKALKTFQEEFMPVETFSEFLDVAGLLSEITDPESFLKDLLNSVP
Binder B1 has a Kd of 1.47 µM.
